From PMC4504005 (2015) come the findings set out here.

Where “and” joins values, the source holds several entries; their conditions need not be identical. Equal values may be shown once. Ends that are not written are not given here.

The target of experiment [1] is wild-type tethered MBP-RAMP2 ECD-CLR ECD fusion protein (UniProt O60895 43-143).
Experiment [2] deals with MBP-RAMP2 ECD [L106R]-(GSA)3-CLR ECD-H6 tethered fusion protein (UniProt O60895 43-143, L106R).
Experiment [3] addresses MBP-RAMP1 ECD-(GSA)3-CLR ECD-H6 tethered fusion protein (UniProt O60894 27-118).

For the molecule TVQKLAHQIYQFTDKDKDNVAPRSKISPQGY-NH2 [AM(22–52)NH2], the IC50 (in general, the point on the concentration scale where inhibition reaches its midpoint) in experiment [1] was 4.79 µM; in experiment [2] it was 5.37 µM and 12.9 µM.
FVPTDVGPFAY-NH2 [CGRPmut [F37Y]] showed an IC50 in experiment [3] of 0.575 µM.
